In patent US20260250651, “CAS12 PROTEINS AND USES THEREOF” (GUANGZHOU REFORGENE MEDICINE CO., LTD., published 2026):

T1: Cas12i-69 (N295R,N260R,G705R)
T1 chain: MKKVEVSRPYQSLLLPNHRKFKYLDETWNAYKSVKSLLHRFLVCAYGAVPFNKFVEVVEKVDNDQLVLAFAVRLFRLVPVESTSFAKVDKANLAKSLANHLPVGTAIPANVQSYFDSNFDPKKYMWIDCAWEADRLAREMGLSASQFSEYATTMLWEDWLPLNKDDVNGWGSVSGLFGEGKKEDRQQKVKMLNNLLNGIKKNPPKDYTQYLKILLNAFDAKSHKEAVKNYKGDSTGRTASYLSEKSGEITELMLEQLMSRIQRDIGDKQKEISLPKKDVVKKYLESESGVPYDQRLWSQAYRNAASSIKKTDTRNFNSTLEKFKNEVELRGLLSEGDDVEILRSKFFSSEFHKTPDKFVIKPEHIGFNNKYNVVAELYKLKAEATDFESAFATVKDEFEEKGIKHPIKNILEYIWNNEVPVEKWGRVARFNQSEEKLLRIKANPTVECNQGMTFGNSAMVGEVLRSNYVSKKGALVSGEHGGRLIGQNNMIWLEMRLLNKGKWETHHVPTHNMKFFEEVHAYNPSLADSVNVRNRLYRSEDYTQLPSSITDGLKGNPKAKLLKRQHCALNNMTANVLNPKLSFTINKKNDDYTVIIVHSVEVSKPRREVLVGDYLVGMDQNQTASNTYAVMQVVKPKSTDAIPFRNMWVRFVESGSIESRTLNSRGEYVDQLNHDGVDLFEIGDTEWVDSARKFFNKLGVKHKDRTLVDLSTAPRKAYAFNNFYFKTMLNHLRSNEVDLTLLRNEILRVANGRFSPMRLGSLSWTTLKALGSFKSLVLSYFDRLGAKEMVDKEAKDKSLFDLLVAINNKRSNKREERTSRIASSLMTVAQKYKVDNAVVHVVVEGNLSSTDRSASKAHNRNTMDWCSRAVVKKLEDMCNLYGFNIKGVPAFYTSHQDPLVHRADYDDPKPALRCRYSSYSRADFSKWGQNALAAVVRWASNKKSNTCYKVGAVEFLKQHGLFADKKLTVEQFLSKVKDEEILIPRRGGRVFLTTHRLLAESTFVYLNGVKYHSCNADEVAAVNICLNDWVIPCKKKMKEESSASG

T2: Cas12i-30 (N295R,N260R)
T2 chain: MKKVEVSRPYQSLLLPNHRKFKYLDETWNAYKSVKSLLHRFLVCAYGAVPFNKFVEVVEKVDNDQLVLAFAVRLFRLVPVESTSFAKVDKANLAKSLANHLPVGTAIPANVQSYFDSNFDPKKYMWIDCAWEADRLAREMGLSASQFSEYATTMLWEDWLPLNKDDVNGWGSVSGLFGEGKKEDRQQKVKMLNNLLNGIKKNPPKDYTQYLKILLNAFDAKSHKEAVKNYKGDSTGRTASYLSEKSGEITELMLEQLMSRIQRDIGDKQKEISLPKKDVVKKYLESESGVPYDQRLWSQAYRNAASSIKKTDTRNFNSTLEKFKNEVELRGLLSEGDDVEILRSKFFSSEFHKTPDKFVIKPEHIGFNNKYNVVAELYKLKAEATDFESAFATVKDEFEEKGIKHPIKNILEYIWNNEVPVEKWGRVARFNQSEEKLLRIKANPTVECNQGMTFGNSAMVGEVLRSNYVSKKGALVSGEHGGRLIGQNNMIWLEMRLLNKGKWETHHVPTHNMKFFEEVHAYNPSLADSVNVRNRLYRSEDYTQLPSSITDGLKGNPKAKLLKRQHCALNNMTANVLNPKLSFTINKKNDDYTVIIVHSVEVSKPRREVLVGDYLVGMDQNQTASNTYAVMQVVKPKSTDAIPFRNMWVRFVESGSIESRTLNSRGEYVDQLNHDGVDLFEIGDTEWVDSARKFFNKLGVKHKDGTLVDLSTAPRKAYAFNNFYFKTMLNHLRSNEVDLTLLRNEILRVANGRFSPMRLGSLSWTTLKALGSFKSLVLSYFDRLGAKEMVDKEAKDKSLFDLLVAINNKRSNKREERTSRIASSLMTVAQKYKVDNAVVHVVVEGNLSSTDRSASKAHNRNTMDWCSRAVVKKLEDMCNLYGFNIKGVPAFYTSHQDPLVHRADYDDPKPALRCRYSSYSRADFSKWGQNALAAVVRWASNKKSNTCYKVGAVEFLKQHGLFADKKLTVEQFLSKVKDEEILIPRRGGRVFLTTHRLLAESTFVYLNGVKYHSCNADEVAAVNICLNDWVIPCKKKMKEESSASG

B1: gRNA-HBG ; HBG target (ssRNA ; dsDNA)
RNA: AGAGAAUGUGUGCAUAGUCACACACAAGGCAAACUUGACCAAU
DNA 1: ACAAGGCAAACTTGACCAAT
DNA 2: ATTGGTCAAGTTTGCCTTGT
B2: gRNA-TTR ; TTR target (ssRNA ; dsDNA)
RNA: AGAGAAUGUGUGCAUAGUCACACCAGUAAGAUUUGGUGUCUAU
DNA 1: CAGTAAGATTTGGTGTCTAT
DNA 2: ATAGACACCAAATCTTACTG

How the values were obtained:
[1] = target: T1, Cas12i-69; assay: cell_activity; 293T indels; editing >3%
Description: (§1) Plating: The 293T cell line was plated when the confluence reached 70-80%, and the number of cells seeded in a 24-well plate was 5*10\hat{ }5 cells/well.
(§2) Transfection: After 12-14 hours of plating, transfection was performed. 100 μl of Opti-MEM, 1.5 μl of PEI (Yisheng Bio, Polyethylenimine Linear (PEI) MW25000), 250 ng of the mutant clone plasmid from Example 2, and 250 ng of gRNA plasmid for targeting endogenous genes were added to each well of a 24-well plate. The mixture was incubated at room temperature for 20 minutes and then added to 293T cells for transfection. After transfection overnight, the medium was replaced with fresh medium and cultured for the next period.
(§3) DNA extraction, PCR amplification, and Sanger sequencing: After culturing for 72 hours, cells were washed with PBS, and then 100 μl of cell lysis buffer (Viagen, DirectPCR® Lysis Reagent (Cell)) was added for lysis to obtain a lysate containing genomic DNA. The genomic DNA was amplified in the region near the target sequence, and the PCR product was sent to a sequencing company for Sanger sequencing.

[2] = target: T2, Cas12i-30; assay: cell_activity; 293T indels; editing >10%
Description: as §1, §2, §3

Row | Binder | relative indel editing efficiency [1] | relative indel editing efficiency [2]
1 | B1 | 1.27 fold of wild type | 
2 | B2 |  | 1.89 fold of wild type
